Laboratory results as given in patent US20140271668.

How the values were obtained:
[1] = molecular target: lentiviral wild type parkin (expressed in transfected neuroblastoma cells), O60260
[2] = molecular target: T1, non-catalytic mutant T240R parkin (lentiviral), O60260
T1 chain: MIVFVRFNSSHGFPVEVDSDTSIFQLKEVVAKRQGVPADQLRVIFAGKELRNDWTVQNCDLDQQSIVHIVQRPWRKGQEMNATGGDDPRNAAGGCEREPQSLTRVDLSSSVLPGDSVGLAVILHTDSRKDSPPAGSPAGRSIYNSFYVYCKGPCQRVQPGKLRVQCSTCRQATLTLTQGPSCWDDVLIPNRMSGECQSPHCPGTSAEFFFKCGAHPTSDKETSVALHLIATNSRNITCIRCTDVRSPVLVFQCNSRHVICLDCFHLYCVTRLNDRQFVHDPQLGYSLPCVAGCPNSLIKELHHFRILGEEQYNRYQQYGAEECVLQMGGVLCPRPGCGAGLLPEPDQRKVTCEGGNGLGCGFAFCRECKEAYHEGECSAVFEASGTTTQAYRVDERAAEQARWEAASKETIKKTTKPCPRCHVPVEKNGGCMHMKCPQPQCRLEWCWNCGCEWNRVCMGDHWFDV

B1: lentiviral USP13 (expressed in transfected neuroblastoma cells) (protein)
chain: MQRRGALFGMPGGSGGRKMAAGDIGELLVPHMPTIRVPRSGDRVYKNECAFSYDSPNSEGGLYVCMNTFLAFGREHVERHFRKTGQSVYMHLKRHVREKVRGASGGALPKRRNSKIFLDLDTDDDLNSDDYEYEDEAKLVIFPDHYEIALPNIEELPALVTIACDAVLSSKSPYRKQDPDTWENELPVSKYANNLTQLDNGVRIPPSGWKCARCDLRENLWLNLTDGSVLCGKWFFDSSGGNGHALEHYRDMGYPLAVKLGTITPDGADVYSFQEEEPVLDPHLAKHLAHFGIDMLHMHGTENGLQDNDIKLRVSEWEVIQESGTKLKPMYGPGYTGLKNLGNSCYLSSVMQAIFSIPEFQRAYVGNLPRIFDYSPLDPTQDFNTQMTKLGHGLLSGQYSKPPVKSELIEQVMKEEHKPQQNGISPRMFKAFVSKSHPEFSSNRQQDAQEFFLHLVNLVERNRIGSENPSDVFRFLVEERIQCCQTRKVRYTERVDYLMQLPVAMEAATNKDELIAYELTRREAEANRRPLPELVRAKIPFSACLQAFSEPENVDDFWSSALQAKSAGVKTSRFASFPEYLVVQIKKFTFGLDWVPKKFDVSIDMPDLLDINHLRARGLQPGEEELPDISPPIVIPDDSKDRLMNQLIDPSDIDESSVMQLAEMGFPLEACRKAVYFTGNMGAEVAFNWIIVHMEEPDFAEPLTMPGYGGAASAGASVFGASGLDNQPPEEIVAIITSMGFQRNQAIQALRATNNNLERALDWIFSHPEFEEDSDFVIEMENNANANIISEAKPEGPRVKDGSGTYELFAFISHMGTSTMSGHYICHIKKEGRWVIYNDHKVCASERPPKDLGYMYFYRRIPS
parkin ubiquitination (E3LITE ubiquitin ligase ELISA with E1, UbcH7, ATP and WT ubiquitin) [1]: USP13 significantly decreased (36%) parkin ubiquitination | ubiquitinated parkin level (parkin immunoprecipitation and Western blot with anti-ubiquitin antibodies) [1]: decreased ubiquitinated parkin level when parkin was co-expressed with USP13 | level of ubiquitinated proteins (parkin immunoprecipitation and Western blot with anti-ubiquitin antibodies) [2]: the level of ubiquitinated proteins when mutant T240R parkin was expressed was unaltered in the presence or absence of USP13
